Laboratory results as given in the supplement of paper PMC11246515.
± gives the standard deviation of the averaged measurements.

Experiment: total protein half-life in vivo (active degradation + dilution); higher = more stable protein
[1] = E. coli NCM3722 delta-clpP delta-lon delta-hslV, growth: N-lim chemostat, doubling time 6 h
[2] = E. coli NCM3722 delta-clpP, growth: N-lim chemostat, doubling time 6 h
[3] = E. coli NCM3722 delta-hslV, growth: N-lim chemostat, doubling time 6 h
[4] = E. coli NCM3722 delta-lon, growth: N-lim chemostat, doubling time 6 h
[5] = E. coli NCM3722 delta-smpB, growth: N-lim chemostat, doubling time 6 h
[6] = wild type E. coli NCM3722, growth: C-lim chemostat, doubling time 3 h
[7] = wild type E. coli NCM3722, growth: C-lim chemostat, doubling time 6 h
[8] = wild type E. coli NCM3722, growth: C-lim chemostat, doubling time 12 h
[9] = wild type E. coli NCM3722, growth: N-lim chemostat, doubling time 6 h
[10] = wild type E. coli NCM3722, growth: N-lim chemostat, doubling time 12 h
[11] = wild type E. coli NCM3722, growth: P-lim chemostat, doubling time 6 h
[12] = wild type E. coli NCM3722, growth: P-lim chemostat, doubling time 12 h

## MMRKMLLAAALSVTAMTAHADYQCSVTPRDDVIVSPQTVQVKGENGNLVITPDGNVMYNGKQYSLNAAQREQAKDYQAELRSTLPWIDEGAKSRVEKARIALDKIIVQEMGESSKMRSRLTKLDAQLKEQMNRIIETRSDGLTFHYKAIDQVRAEGQQLVNQAMGGILQDSINEMGAKAVLKSGGNPLQNVLGSLGGLQSSIQTEWKKQEKDFQQFGKDVCSRVVTLEDSRKALVGNLK [P0ADS9]
[1]
  total protein half-life in vivo: 3.83 ± 0.21 h
[2]
  total protein half-life in vivo: 5 ± 1 h
[3]
  total protein half-life in vivo: 5.36 ± 0.32 h
[4]
  total protein half-life in vivo: 6.04 ± 0.83 h
[5]
  total protein half-life in vivo: 5.818 ± 0.046 h
[6]
  total protein half-life in vivo: 2.92 ± 0.17 h
[7]
  total protein half-life in vivo: 5.11 ± 0.8 h
[8]
  total protein half-life in vivo: 8.05 ± 1.5 h
[9]
  total protein half-life in vivo: 5.76 ± 0.15 h
[10]
  total protein half-life in vivo: 10.3 ± 0.12 h
[11]
  total protein half-life in vivo: 5.0188 ± 0.0027 h
[12]
  total protein half-life in vivo: 10 ± 0.48 h

## MLSTLRRTLFALLACASFIVHAAAPDEITTAWPVNVGPLNPHLYTPNQMFAQSMVYEPLVKYQADGSVIPWLAKSWTHSEDGKTWTFTLRDDVKFSNGEPFDAEAAAENFRAVLDNRQRHAWLELANQIVDVKALSKTELQITLKSAYYPFLQELALPRPFRFIAPSQFKNHETMNGIKAPIGTGPWILQESKLNQYDVFVRNENYWGEKPAIKKITFNVIPDPTTRAVAFETGDIDLLYGNEGLLPLDTFARFSQNPAYHTQLSQPIETVMLALNTAKAPTNELAVREALNYAVNKKSLIDNALYGTQQVADTLFAPSVPYANLGLKPSQYDPQKAKALLEKAGWTLPAGKDIREKNGQPLRIELSFIGTDALSKSMAEIIQADMRQIGADVSLIGEEESSIYARQRDGRFGMIFHRTWGAPYDPHAFLSSMRVPSHADFQAQQGLADKPLIDKEIGEVLATHDETQRQALYRDILTRLHDEAVYLPISYISMMVVSKPELGNIPYAPIATEIPFEQIKPVKP
[1]
  total protein half-life in vivo: 6.58 h
[2]
  total protein half-life in vivo: 6.35 h
[3]
  total protein half-life in vivo: > 8 h
[4]
  total protein half-life in vivo: > 8 h
[7]
  total protein half-life in vivo: > 8 h
[8]
  total protein half-life in vivo: > 16 h
[9]
  total protein half-life in vivo: 6.2 h
[10]
  total protein half-life in vivo: > 16 h
[11]
  total protein half-life in vivo: 6.61 h

## MKQVCVLGNGQLGRMLRQAGEPLGIAVWPVGLDAEPAAVPFQQSVITAEIERWPETALTRELARHPAFVNRDVFPIIADRLTQKQLFDKLHLPTAPWQLLAERSEWPAVFDRLGELAIVKRRTGGYDGRGQWRLRANETEQLPAECYGECIVEQGINFSGEVSLVGARGFDGSTVFYPLTHNLHQDGILRTSVAFPQANAQQQAQAEEMLSAIMQELGYVGVMAMECFVTPQGLLINELAPRVHNSGHWTQNGASISQFELHLRAITDLPLPQPVVNNPSVMINLIGSDVNYDWLKLPLVHLHWYDKEVRPGRKVGHLNLTDSDTSRLTATLEALIPLLPPEYASGVIWAQSKFG
[1]
  total protein half-life in vivo: 5.64 ± 0.49 h
[2]
  total protein half-life in vivo: 4.96 ± 1.2 h
[3]
  total protein half-life in vivo: 3.96 ± 0.012 h
[5]
  total protein half-life in vivo: 4.51 ± 0.38 h
[6]
  total protein half-life in vivo: 3.19 ± 0.41 h
[7]
  total protein half-life in vivo: 6.83 ± 1.3 h
[8]
  total protein half-life in vivo: 9.39 ± 0.78 h
[9]
  total protein half-life in vivo: 4.393 ± 0.015 h
[10]
  total protein half-life in vivo: 8.59 ± 3.2 h
[11]
  total protein half-life in vivo: 6.17 ± 0.59 h
[12]
  total protein half-life in vivo: 12.1 ± 0.25 h

## MVTLYGIKNCDTIKKARRWLEANNIDYRFHDYRVDGLDSELLNDFINELGWEALLNTRGTTWRKLDETTRNKITDAASAAALMTEMPAIIKRPLLCVPGKPMLLGFSDSSYQQFFHEV
[1]
  total protein half-life in vivo: 5.94 ± 0.23 h
[2]
  total protein half-life in vivo: 5.95 ± 0.25 h
[5]
  total protein half-life in vivo: 5.87 ± 1.3 h
[6]
  total protein half-life in vivo: 3.07 ± 0.16 h
[7]
  total protein half-life in vivo: 6.1 ± 0.65 h
[8]
  total protein half-life in vivo: 9.79 ± 1.3 h
[9]
  total protein half-life in vivo: > 8 h
[10]
  total protein half-life in vivo: 8.47 h
[11]
  total protein half-life in vivo: 6.07 h
[12]
  total protein half-life in vivo: 11.3 ± 0.18 h

## MLTIQFLCPLPNGLHARPAWELKEQCSQWQSEITFINHRQNAKADAKSSLALIGTGTLFNDSCSLNISGSDEEQARRVLEEYIQVRFIDSDSVQPTQAELTAHPLPRSLSRLNPDLLYGNVLASGVGVGTLTLLQSDSLDSYRAIPASAQDSTRLEHSLATLAEQLNQQLRERDGESKTILSAHLSLIQDDEFAGNIRRLMTEQHQGLGAAIISNMEQVCAKLSASASDYLRERVSDIRDISEQLLHITWPELKPRNKLVLEKPTILVAEDLTPSQFLSLDLKNLAGMILEKTGRTSHTLILARASAIPVLSGLPLDAIARYAGQPAVLDAQCGVLAINPNDAVSGYYQVAQTLADKRQKQQAQAAAQLAYSRDNKRIDIAANIGTALEAPGAFANGAEGVGLFRTEMLYMDRDSAPDEQEQFEAYQQVLLAAGDKPIIFRTMDIGGDKSIPYLNIPQEENPFLGYRAVRIYPEFAGLFRTQLRAILRAASFGNAQLMIPMVHSLDQILWVKGEIQKAIVELKRDGLRHAETITLGIMVEVPSVCYIIDHFCDEVDFFSIGSNDMTQYLYAVDRNNPRVSPLYNPITPSFLRMLQQIVTTAHQRGKWVGICGELGGESRYLPLLLGLGLDELSMSSPRIPAVKSQLRQLDSEACRELARQACECRSAQEIEALLTAFTPEEDVRPLLALENIFVDQDFSNKEQAIQFLCGNLGVNGRTEHPFELEEDVWQREEIVTTGVGFGVAIPHTKSQWIRHSSISIARLAKPIGWQSEMGEVELVIMLTLGANEGMNHVKVFSQLARKLVNKNFRQSLFAAQDAQSILTLLETELTF
[1]
  total protein half-life in vivo: 6.54 h
[5]
  total protein half-life in vivo: 2.21 h
[6]
  total protein half-life in vivo: 2.36 h
[11]
  total protein half-life in vivo: 3.21 h

## MSHWATFKQTATNLWVTLRHDILALAVFLNGLLIFKTIYGMSVNLLDIFHIKAFSELDLSLLANAPLFMLGVFLVLNSIGLLFRAKLAWAISIILLLIALIYTLHFYPWLKFSIGFCIFTLVFLLILRKDFSHSSAAAGTIFAFISFTTLLFYSTYGALYLSEGFNPRIESLMTAFYFSIETMSTVGYGDIVPVSESARLFTISVIISGITVFATSMTSIFGPLIRGGFNKLVKGNNHTMHRKDHFIVCGHSILAINTILQLNQRGQNVTVISNLPEDDIKQLEQRLGDNADVIPGDSNDSSVLKKAGIDRCRAILALSDNDADNAFVVLSAKDMSSDVKTVLAVSDSKNLNKIKMVHPDIILSPQLFGSEILARVLNGEEINNDMLVSMLLNSGHGIFSDNDELETKADSKESAQK
[1]
  total protein half-life in vivo: 5.54 ± 0.5 h
[2]
  total protein half-life in vivo: 5.47 h
[4]
  total protein half-life in vivo: 5.25 ± 0.22 h
[5]
  total protein half-life in vivo: 4.7 ± 0.18 h
[6]
  total protein half-life in vivo: 2.43 ± 0.039 h
[7]
  total protein half-life in vivo: 4.78 ± 0.82 h
[8]
  total protein half-life in vivo: 7.86 h
[9]
  total protein half-life in vivo: 4.54 ± 0.47 h
[10]
  total protein half-life in vivo: 9.01 ± 0.45 h
[12]
  total protein half-life in vivo: 9.87 ± 0.24 h

## MLHLFAGLDLHTGLLLLLALAFVLFYEAINGFHDTANAVATVIYTRAMRSQLAVVMAAVFNFLGVLLGGLSVAYAIVHMLPTDLLLNMGSSHGLAMVFSMLLAAIIWNLGTWYFGLPASSSHTLIGAIIGIGLTNALMTGTSVVDALNIPKVLSIFGSLIVSPIVGLVFAGGLIFLLRRYWSGTKKRARIHLTPAEREKKDGKKKPPFWTRIALILSAIGVAFSHGANDGQKGIGLVMLVLIGVAPAGFVVNMNATGYEITRTRDAINNVEAYFEQHPALLKQATGADQLVPAPEAGATQPAEFHCHPSNTINALNRLKGMLTTDVESYDKLSLDQRSQMRRIMLCVSDTIDKVVKMPGVSADDQRLLKKLKSDMLSTIEYAPVWIIMAVALALGIGTMIGWRRVATTIGEKIGKKGMTYAQGMSAQMTAAVSIGLASYTGMPVSTTHVLSSSVAGTMVVDGGGLQRKTVTSILMAWVFTLPAAVLLSGGLYWLSLQFL [P0AFJ7]
[1]
  total protein half-life in vivo: 6.99 ± 0.45 h
[2]
  total protein half-life in vivo: 6.5 ± 1.2 h
[5]
  total protein half-life in vivo: 6.14 ± 0.78 h
[6]
  total protein half-life in vivo: 3.761 ± 0.013 h
[7]
  total protein half-life in vivo: 6.37 ± 1.4 h
[8]
  total protein half-life in vivo: 14.4 ± 0.95 h
[9]
  total protein half-life in vivo: 6.13 ± 0.24 h
[11]
  total protein half-life in vivo: 6.54 ± 0.4 h
[12]
  total protein half-life in vivo: 12.6 ± 1 h
